Consider eight sequences from the DeepSol protein solubility set.

The data set is described as follows: soluble on expression in E. coli; label from the status in PepcDB or PDB records.
With “MEGGKLQSTFVFEEIGRRLKDIGPEVVKKVNAVFEWHITKGGNIGAKWTIDLKSGSGKVYQGPAKGAADTTIILSDEDFMEVVLGKLDPQKAFFSGRLKARGNIMLSQKLQMILKDYAKL”, the “soluble on expression in E. coli” value is given as “soluble”.

For the sequence “MEGLLIDYVQPGSIAEELEIEAGDRLVAINGQDLRDIIDFSFYAHDEELALEIVKPSGDHWEAEIERDGDEPLGLVFAPPVPAQCGNKCVFCFVHQLPLEHHHHHH”, the “soluble on expression in E. coli” value is reported as “soluble”.

With “MEGVMGQVEKRPISTIVFIVAMQKEAQPLINRLRLVEEVNTPFPKEVTWIMFKGMYKDLNINIVCPGKDSTLGVESVGTVPASLVTYASILAIQPDLIINAGTAGGFKAKGACISDVYVVSTVAFHDRRIPVPVLDIYGVGMRNTFPTPNLIKELNLKVGRLSTGDSMDMSPHDEESITANDATVKDMEGAAVAYVADIFKVPTILIKGVTDIVDGNRPTSEEFLENLAAVTAKLDESLTKVIDFISGKCLSDL”, the “soluble on expression in E. coli” value is “soluble”.

Consider “MEGWQRAFVLHSRPWSETSLMLDVFTEESGRVRLVAKGARSKRSNLKGALQPFTPLLLRYSGRGEVKTLRSAEAVSLALPLSGITLYSGLYINELLSRVLEYETRFSELFFDYLNCIQALAGTTGSPEPALRRFELALLGHLGYGVNFTHCAGSGERVDDTMTYRYREEKGFFASVVIDNNTFTGRHLKALEAREFPDVDTLRAAKRFTRMALKPYLGGKPLKSRELFRQFMPKRTVKTKKD”, for which the “soluble on expression in E. coli” value is “not soluble”.

“MEHFDVAIIGLGPAGSALARKLAGKMQVIALDKKHQCGTEGFSKPCGGLLAPDAQRSFIRDGLTLPVDVIANPQIFSVKTVDVAASLTRNYQRSYININRHAFDLWMKSLIPASVEVYHDSLCRKIWREDDKWHVIFRADGWEQHITARYLVGADGANSMVRRHLYPDHQIRKYVAIQQWFAEKHPVPFYSCIFDNAITDCYSWSISKDGYFIFGGAYPMKDGQTRFTTLKEKMSAFQFQFGKAVKSEKCTVLFPSRWQDFVCGKDNAFLIGEAAGFISASSLEGISYALDSAEILRAVFLKQPEKSNAAYWRATHKLRLKLFGKIVKSRCLTAPALRKWIMRSGVAHIPQLKDYPTRFTSPTSRM”: the “soluble on expression in E. coli” value was “not soluble”.

Regarding “MEHNQLIAMITEAVMEQIRPLPKINQIPVAISNRHVHLSQEDAQTLFGPNYSFKIKKDLSQPGQYACEERVTLVGPKGVIENVRILGPVRPQTQVELSVSDGIKLGITPPVRDSGDLANSAGITLVGPSGSLTLPEGVIAAARHIHMHSTDAARFGVKDRDRVSVTAPGPRGLVFRETLIRVSHNFTLEMHIDIDEANAAALRNQDYVELLLVNHLLP”, the “soluble on expression in E. coli” value is “not soluble”.

Consider “MEHTKKFKSLNLHGFDRSTEDYGKRPFVLTAKLLEDQKKAIYGCAFNQYAGIDEEQAVATVGGSFLHMYSVPIDINNIELQWSCNFPTDKSSKVEREESLFTVTWCYDTYEAENDRNPFKVVTGGTLGHIYVIDYVSRKLSNRLRSVGWEINDIRTCPANSNLIVCASSDQSIRIHHIRNEACLIVIGGLECHAGTILSVDWSTDGDFILSCGFDHQLMEWDLSVKQVKEHLERACKALHQDKINVLTQSQDIPYVSKGTMRKSAVSRNIPDKEEDQLLELHRELIPRPSCLLPIYTPSSVSTDMHSDYVDCIRFLIGTNYALSKGCGNEKAIHFWRFGPPKGEVENRIHGNVLRPKSCTTKFRTMNVPSGSAWFIKFAVDPRRRWLVCGGAGGSVMFFDLRNNEETNPTHTCSVGSRTVRQASFSTCGRFLVLVTDEGFVCRFDRVSASVDAKDLFLMSSPTSSKDYSSPKHSFMLTVDSNLQSDKKKTFLNVQSSSSAGSTKHCQIPMSKDEYFETRGKLDSVDVIDQFRQRQQ”, for which the “soluble on expression in E. coli” value is on record as “not soluble”.

In the case of “MEIIRPMRVAIVAESFLPNVNGVTNSVLRVLEHLKANGHDALVIAPGARDFEEEIGHYLGFEIVRVPTVRVPLIDSLPIGVPLPSVTSVLREYNPDIIHLASPFVLGGAAAFAARQLRIPAIAIYQTDVAGFSQRYHLAPLATASWEWIKTVHNMCQRTLAPSSMSIDELRDHGINDIFHWARGVDSKRFHPGKRSVALRKSWDPSGAKKIVGFVGRLASEKGVECLAGLSGRSDIQLVIVGDGPEAKYLQEMMPDAIFTGALGGEELATTYASLDLFVHPGEFETFCQAIQEAQASGVPTIGPRAGGPIDLINEGVNGLLLDVVDFKETLPAAAEWILDDSRHSEMCAAAWEGVKDKTWEALCTQLLQHYADVIALSQRIPLTFFGPSAEVAKLPLWVARALGVRTRISIEALEHHHHHH”, the “soluble on expression in E. coli” value was “soluble”.
